Measurements as given in patent US12421510B2, “Peptide, a complex and a method for treating cancer” (TECHNION RESEARCH & DEVELOPMENT FOUNDATION LIMITED, priority 2018, dated 2025).

T1: p105 (Homo sapiens, UniProt P19838)
T1 sequence (P19838 1-968): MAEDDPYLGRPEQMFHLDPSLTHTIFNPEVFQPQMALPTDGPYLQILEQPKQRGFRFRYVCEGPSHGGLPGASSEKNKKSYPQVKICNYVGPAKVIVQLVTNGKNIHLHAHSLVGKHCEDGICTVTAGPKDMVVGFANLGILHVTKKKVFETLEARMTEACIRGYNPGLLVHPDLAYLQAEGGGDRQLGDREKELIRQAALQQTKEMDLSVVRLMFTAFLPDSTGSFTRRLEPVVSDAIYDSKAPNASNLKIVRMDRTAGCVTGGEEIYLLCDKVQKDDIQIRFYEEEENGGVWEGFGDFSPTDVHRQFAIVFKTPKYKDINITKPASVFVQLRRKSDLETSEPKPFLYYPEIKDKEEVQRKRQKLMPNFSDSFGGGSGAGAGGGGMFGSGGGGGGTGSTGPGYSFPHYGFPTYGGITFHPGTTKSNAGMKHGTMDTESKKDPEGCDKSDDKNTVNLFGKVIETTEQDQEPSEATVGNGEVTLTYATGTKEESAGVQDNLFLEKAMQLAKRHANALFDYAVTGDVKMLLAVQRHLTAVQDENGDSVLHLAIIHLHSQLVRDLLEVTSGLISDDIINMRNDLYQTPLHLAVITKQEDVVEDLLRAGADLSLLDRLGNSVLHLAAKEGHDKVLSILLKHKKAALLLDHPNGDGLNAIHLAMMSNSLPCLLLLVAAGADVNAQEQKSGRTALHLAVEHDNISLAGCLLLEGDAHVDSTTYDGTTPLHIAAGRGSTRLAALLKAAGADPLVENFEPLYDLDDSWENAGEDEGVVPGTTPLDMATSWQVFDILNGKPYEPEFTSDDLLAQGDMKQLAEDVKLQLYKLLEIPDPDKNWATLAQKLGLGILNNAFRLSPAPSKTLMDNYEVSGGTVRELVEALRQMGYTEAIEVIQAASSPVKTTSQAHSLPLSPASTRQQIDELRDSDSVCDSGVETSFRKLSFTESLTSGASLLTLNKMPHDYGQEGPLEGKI


How the values were obtained:
[1] = tested on: glioblastoma U87-MG tumor; assay: Growth of U87-MG tumor xenografts overexpressing KPC1 species in nude mice; format: in vivo; details: overexpression in U87-MG cells injected to nude mice; growth rates and weights of xenografts, three weeks after inoculation
Excerpt: FIG. 8A and FIG. 8B depict growth rates and weights of tumor xenografts grown in nude mice, and derived from U87-MG expressing V0 (control), Myc-KPC1 or Flag-WILVRLW-KPC1Δ1-1039 (SEQ ID NO: 6).
Growth rates and weights (FIG. 8B) of tumor xenografts grown in nude mice, and derived from U87-MG expressing VO (control), Myc-KPC1, and Flag-WILVRLW-KPC1Δ1-1039 (SEQ ID. No. 6).

[2] = molecular target: T1, p105; assay: Co-immunoprecipitation (Co-IP) of KPC1 species with p105-HA from transfected HEK293T cells; format: binding; set-up: HA; expressed in transfected cells; host or cells: HEK293T; details: anti-FLAG immunoprecipitation, anti-NF-κB1 western blot, listed as full-length KPC1
Excerpt: FIG. 1B is a western blot showing the following: HEK293T cells were transfected with cDNAs coding for p105-HA (lanes 1-6), along with the different KPC1 species as following: W.T KPC1 (lane 1), KPC1Δ969-1314 (lane 2), KPC1Δ1-438 & 1039-1314 (lane 3), KPC1Δ1-967 (lane 4) and KPC1Δ1-1042 (lane 5). Lane 6 was transfected with an empty vector. KPC1 species were immunoprecipitated using immobilized FLAG antibodies, resolved by SDS-page, and NF-κB1 and KPC1 proteins were visualized by anti-NF-κB1 (FIG. 1B (upper)) and anti-FLAG (FIG. 1B (bottom)) antibodies, respectively. 10% of the total cell lysate was analyzed for the expression of p105-HA.
FIG. 2B is a western blot. HEK293T cells were transfected with cDNAs coding for p105-HA (lanes 1-7), along with different KPC1 species as following: WT KPC1 (lane 1), KPC1Δ1-967 (lane 2), KPC1Δ967-1043 (lane 3), KPC1Δ1-973 (lane 4), KPC1Δ1-1017 (lane 5) and KPC1ΔCC domain (lane 6). Lane 7 represents cells that were transfected with empty vector. KPC1 species were immunoprecipitated using immobilized FLAG antibodies, resolved by SDS-page. NF-κB1 and KPC1 proteins were visualized with anti-NF-κB1 (FIG. 2B (i)) and anti-FLAG (FIG. 2B (ii)) antibodies, respectively. 10% of the total cell lysate was analyzed for the expression of p105-HA. FIGS. 3A and 3B: FIG. 3A is a schematic representation of KPC1 species used in the experiment shown in FIG. 3B that was directed to evaluating the region of KPC1 that is responsible for the interaction with p105.
FIG. 3B is a western blot. HEK293T cells were transfected with cDNAs coding for p105-HA (lanes 1-12), along with different KPC1 species as following: KPC1-FLAG (lane 1), WILVRLW-KPC1 Δ 1-1253 (SEQ ID NO: 8) (lane 2), ILVRLW-KPC1 Δ 1-1253 (SEQ ID NO: 10) (lane 3), LVRLW-KPC1 Δ 1-1253 (SEQ ID NO: 11) (lane 4), VRLW-KPC1 Δ 1-1253 (lane 5) (SEQ ID NO: 12), RLW-KPC1 Δ 1-1253 (lane 6) SEQ ID NO:13), KPC1 Δ 1-1253 (lane 7), WILVRL-KPC1 Δ 1-1253 (lane 8) (SEQ ID NO: 14), WILVR-KPC1 Δ 1-1253 (SEQ ID NO: 15) (lane 9), WILV-KPC1 Δ 1-1253 (SEQ ID NO: 16) (lane 10), WIL-KPC1 Δ 1-1253 (SEQ ID NO: 17 (lane 11). Lane 12 represents cells that were transfected with empty vector. KPC1 species were immunoprecipitated using immobilized FLAG antibodies, resolved by SDS-page. NF-κB1 and KPC1 proteins were visualized by anti-NF-κB1 (FIG. 3B, (i, ii) and anti-FLAG (FIG. 3B, (iii) antibodies, respectively. 10% of the total cell lysate was analyzed for the expression of p105-HA (FIG. 3B, (ii)).
HEK293T cells were transiently transfected with the various KPC1 species along with p105-HA using the j etPEI reagent. 48 hours after transfection, the cells were harvested and lysed with RIPA buffer [150 mM NaCl, 0.5% sodium deoxycholate, 50 mM Tris-HCl (pH 8.0), 0.1% SDS, and 1% NP-40, supplemented with freshly added protease inhibitors mixture]. KPC1 species proteins were immunoprecipitated with immobilized anti-FLAG, with subsequent washing of the beads five times with RIPA buffer. The immunoprecipitated proteins were resolved by SDS-PAGE (10%, FIGS. 1A, 1B, 2A and 2B, with a gel gradient, of 4-20%; FIGS. 3A and 3B), and blotted onto nitrocellulose (FIGS. 1A, 1B, 2A and 2B) or PVDF (FIGS. 3A and 3B) membranes. p105 and KPC1 species were visualized using anti-NF-κB1 or anti-FLAG antibodies, respectively.
Identification of the region of KPC1 that is responsible for the interaction with p105. In order to identify the region of KPC1 that is responsible for the interaction with p105, several truncated segments of the DNA sequence of the KPC1 protein were cloned. The truncated segments were inserted into the pCAGGS expression vector to analyze their interaction with p105 by co-immunoprecipitation (Co-IP) from cells. HEK 293T cells were transfected with cDNAs coding for p105-HA, along with different fragments of KPC1 (FIG. 1A). Species of KPC1 were immunoprecipitated using an immobilized anti-Flag antibody. […]

[3] = molecular target: T1, p105; assay: Ubiquitination of p105 by purified KPC1 species in cell-free conjugation assay; format: biochemical; details: reconstituted cell-free system, in vitro translated 35S-labeled p105, purified Ub, E1, E2, UbAl, ATP
Excerpt: FIGS. 4A and 4B represent western blots showing in vitro ubiquitination of p105 by mutated species of KPC1: FIG. 4A: In vitro translated and ^35S-labeled p105 was ubiquitinated by purified KPC1-Δ1-967-6xHIS (lanes 2-4) or KPC1-Δ1-974-6xHIS (lanes 5-7) in a reconstituted cell-free system. 4B) In vitro translated and ^355-labeled p105 was ubiquitinated by purified KPC1-Δ1-967-6xHIS (lanes 2,5,6), KPC1-Δ1-974-6xHIS (lane 3), KPC1-Δ967-1043-6xHIS (lane 4), WILVRLW-KPC1-Δ1-1039-6xHIS (lanes 7-8) or WILVRLW-KPC1-Δ1-1061-6xHIS (lanes 9-10) in a reconstituted cell-free system.
In order to assess if the interaction between two proteins leads to the conjugation of the substrate p105, ubiquitination reaction was performed in cell free system. The conjugation reaction was carried out in the presence of purified Ub, E1, E2, UbAl, ATP and KPC1—either wild-type or different mutant species. Samples were resolved via SDS-PAGE and the 35S-labeled p105 and its adducts were visualized using autoradiography. […] In addition, the shorter versions of KPC1 in which the 7 amino acids sequence were brought closer to RING domain, the active site of the enzyme were prepared. Both truncated KPC1 proteins that harbor the 7 amino acid sequence, WILVRLW-KPC1-Δ1-1039 (SEQ ID. No. 6) and WILVRLW-KPC1-Δ1-1061 (SEQ ID. No. 7), modified p105 (FIG. 4B, lanes 7-10).

ubiquitination of p105 [3] | Molecule | tumor growth [1] | interaction with p105 (Co-IP) [2]
 | KPC1: wild-type ubiquitin ligase KPC1 (RNF123), SEQ ID NO: 2 (protein) MASKGAGMSFSRKSYRLTSDAEKSRVTGIVQEKLLNDYLNRIFSSSEHAPPAATSRKPLNFQNLPEHLDQLLQVDNEEEESQGQVEGRLGPSTVVLDHTGGFEGLLLVDDDLLGVIGHSNFGTIRSTTCVYKGKWLYEVLISSQGLMQIGWCTISCRFNQEEGVGDTHNSYAYDGNRVRKWNVTTTNYGKAWAAGDIVSCLIDLDDGTLSFCLNGVSLGTAFENLSRGLGMAYFPAISLSFKESVAFNFGSRPLRYPVAGYRPLQDPPSADLVRAQRLLGCFRAVLSVELDPVEGRLLDKESSKWRLRGQPTVLLTLAHIFHHFAPLLRKVYLVEAVLMSFLLGIVEKGTPTQAQSVVHQVLDLLWLFMEDYEVQDCLKQLMMSLLRLYRFSPIVPDLGLQIHYLRLTIAILRHEKSRKFLLSNVLFDVLRSVVFFYIKSPLRVEEAGLQELIPTTWWPHCSSREGKESTEMKEETAEERLRRRAYERGCQRLRKRIEVVEELQVQILKLLLDNKDDNGGEASRYIFLTKFRKFLQENASGRGNMPMLCPPEYMVCFLHRLISALRYYWDEYKASNPHASFSEEAYIPPQVFYNGKVDYFDLQRLGGLLSHLRKTLKDDLASKANIVIDPLELQSTAMDDLDEDEEPAPAMAQRPMQALAVGGPLPLPRPGWLSSPTLGRANRFLSTAAVSLMTPRRPLSTSEKVKVRTLSVEQRTREDIEGSHWNEGLLLGRPPEEPEQPLTENSLLEVLDGAVMMYNLSVHQQLGKMVGVSDDVNEYAMALRDTEDKLRRCPKRRKDILAELTKSQKVFSEKLDHLSRRLAWVHATVYSQEKMLDIYWLLRVCLRTIEHGDRTGSLFAFMPEFYLSVAINSYSALKNYFGPVHSMEELPGYEETLTRLAAILAKHFADARIVGTDIRDSLMQALASYVCYPHSLRAVERIPEEQRIAMVRNLLAPYEQRPWAQTNWILVRLWRGCGFGYRYTRLPHLLKTKLEDANLPSLQKPCPSTLLQQHMADLLQQGPDVAPSFLNSVLNQLNWAFSEFIGMIQEIQQAAERLERNFVDSRQLKVCATCFDLSVSLLRVLEMTITLVPEIFLDWTRPTSEMLLRRLAQLLNQVLNRVTAERNLFDRVVTLRLPGLESVDHYPILVAVTGILVQLLVRGPASEREQATSVLLADPCFQLRSICYLLGQPEPPAPGTALPAPDRKRFSLQSYADYISADELAQVEQMLAHLTSASAQAAAASLPTSEEDLCPICYAHPISAVFQPCGHKSCKACINQHLMNNKDCFFCKTTIVSVEDWEKGANTSTTSSAA | repressed glioblastoma U87-MG tumor growth | an interaction between p105 and the full-length KPC1 protein was observed
modified p105 | WILVRLW-KPC1-Δ1-1039: truncated KPC1 with the 7 amino acid sequence brought closer to RING domain, SEQ ID NO: 6 (protein) WILVRLWAFSEFIGMIQEIQQAAERLERNFVDSRQLKVCATCFDLSVSLLRVLEMTITLVPEIFLDWTRPTSEMLLRRLAQLLNQVLNRVTAERNLFDRVVTLRLPGLESVDHYPILVAVTGILVQLLVRGPASEREQATSVLLADPCFQLRSICYLLGQPEPPAPGTALPAPDRKRFSLQSYADYISADELAQVEQMLAHLTSASAQAAAASLPTSEEDLCPICYAHPISAVFQPCGHKSCKACINQHLMNNKDCFFCKTTIVSVEDWEKGANTSTTSSAA | repressed glioblastoma U87-MG tumor growth | 
